Reference: patent US12297272B2, “IgG Fc variants for veterinary use” (Elanco US Inc., priority 2017, dated 2025)
Numbering of substitutions follows the chain as printed.

Legend:
[1] = Differential scanning fluorimetry, stability at various pH; type: physicochemical; details: n = 3, 10 μg construct
Excerpt: Furthermore, differential scanning fluorimetry was used to assess the stability of the contiguous polypeptides at various pH, as reflected by mean melting point temperature (n=3) (Table 9, below). The increased stability of the variant feline IgG2 hinge is most evident at pH 6.

C1q [2] = biological target: T1, C1q (Homo sapiens, UniProt P02745+P02746+P02747); assay: C1q binding of IgG Fc polypeptides (Octet biolayer interferometry described); details: for C1q Binding: Wild-type Canine IgG Fc; for C1q binding: key: (−) denotes low or no measurable binding activity
Excerpt: (§1) Binding analysis may be performed using an Octet biosensor.

CD16 = CD16 (Homo sapiens, UniProt P08637); assay: CD16 binding of IgG Fc polypeptides (Octet biolayer interferometry described); details: for CD16 Binding: Wild-type Canine IgG Fc
Excerpt: as §1

Protein A = Protein A (Staphylococcus aureus, UniProt P38507); details: for Protein A Binding: Wild-type Canine IgG Fc
Protocol: In some embodiments, the KD of an IgG Fc polypeptide, such as a variant IgG Fc polypeptide, to Protein A or to C1q or to CD16 is measured by using biolayer interferometry assays using a biosensor, such as an Octet® System (Pall ForteBio LLC, Fremont, CA) according to the supplier's instructions. In brief, biotinylated Protein A or C1q or CD16 is bound to the sensor tip and the association of IgG Fc polypeptide is monitored for a specified time or until steady state is reached. Dissociation may be monitored for a specified time or until steady state is reached. A buffer only blank curve is subtracted to correct for any drift. The data are fit to a 2:1 binding model using ForteBio data analysis software to determine association rate constant (kon), dissociation rate constant (koff), and the Kd. The equilibrium dissociation constant (KD) is calculated as the ratio of koff/kon. The term “kon” refers to the rate constant for association of a molecule X to its partner Y and the term “koff” refers to the rate constant for dissociation of a molecule X or partner Y from the molecule X/partner Y complex.
Binding analysis may be performed using an Octet biosensor. Briefly, the target molecule (e.g., Protein A, C1q, CD16, etc.) may be biotinylated and free unreacted biotin removed (e.g., by dialysis). The biotinylated target molecule is captured on streptavidin sensor tips. Association of the target molecule with various concentrations (e.g., 10 μg/mL) of IgG Fc polypeptide is monitored for a specified time or until steady state is reached. Dissociation is monitored for a specified time or until steady state is reached. A buffer only blank curve may be subtracted to correct for any drift. The data are fit to a 1:1 binding model using ForteBio™ data analysis software to determine the kon, koff, and the Kd.

C1q [3] = biological target: T1, C1q; assay: Binding between human C1q and canine IgG-B Fc fusion protein; details: compared to a fusion protein comprising wild-type canine IgG-B Fc
Excerpt: as §1

T1 sequence (P02745 23-245): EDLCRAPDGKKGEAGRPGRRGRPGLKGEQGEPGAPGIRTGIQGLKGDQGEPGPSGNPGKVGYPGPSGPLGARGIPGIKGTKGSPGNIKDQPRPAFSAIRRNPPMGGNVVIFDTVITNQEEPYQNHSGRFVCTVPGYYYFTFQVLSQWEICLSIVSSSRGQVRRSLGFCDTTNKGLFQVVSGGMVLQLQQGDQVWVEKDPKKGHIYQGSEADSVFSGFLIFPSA
T1 sequence (P02746 28-253): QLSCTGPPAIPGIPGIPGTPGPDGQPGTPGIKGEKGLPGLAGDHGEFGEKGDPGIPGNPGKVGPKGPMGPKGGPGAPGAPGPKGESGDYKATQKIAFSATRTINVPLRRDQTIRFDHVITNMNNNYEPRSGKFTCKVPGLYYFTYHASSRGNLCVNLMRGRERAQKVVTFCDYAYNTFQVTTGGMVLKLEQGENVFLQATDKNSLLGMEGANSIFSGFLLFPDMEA
T1 sequence (P02747 29-245): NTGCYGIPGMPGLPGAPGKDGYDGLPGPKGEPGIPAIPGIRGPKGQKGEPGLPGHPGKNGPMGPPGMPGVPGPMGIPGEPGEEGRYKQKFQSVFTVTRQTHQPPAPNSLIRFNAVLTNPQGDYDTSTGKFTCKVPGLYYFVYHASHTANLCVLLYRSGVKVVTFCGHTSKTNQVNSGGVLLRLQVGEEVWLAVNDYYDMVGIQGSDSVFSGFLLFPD
Sequence of CD16 (P08637 17-254): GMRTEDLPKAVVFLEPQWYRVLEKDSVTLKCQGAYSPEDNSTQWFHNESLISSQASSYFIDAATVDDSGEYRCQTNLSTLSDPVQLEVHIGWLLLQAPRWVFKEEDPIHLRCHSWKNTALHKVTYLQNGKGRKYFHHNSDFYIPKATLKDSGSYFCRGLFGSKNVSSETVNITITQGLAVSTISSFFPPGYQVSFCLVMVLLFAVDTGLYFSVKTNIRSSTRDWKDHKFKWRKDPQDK

B1: GLP1-G8_I_WTfeIgG2: Formula I contiguous polypeptide: GLP1-G8 (7-35), flexible linker, wildtype feline IgG2 Fc (protein)
chain: HGEGTFTSDVSSYLEGQAAKEFIAWLVKGGGGSGGGGSGGGGSGGGGSPKTASTIESKTGEGPKCPVPEIPGAPSVFIFPPKPKDTLSISRTPEVTCLVVDLGPDDSNVQITWFVDNTEMHTAKTRPREEQFNSTYRVVSVLPILHQDWLKGKEFKCKVNSKSLPSAMERTISKAKGQPHEPQVYVLPPTQEELSENKVSVTCLIKGFHPPDIAVEWEITGQPEPENNYQTTPPQLDSDGTYFLYSRLSVDRSHWQRGNTYTCSVSHEALHSHHTQKSLTQSPGK
modifications: Synthetic GLP1-G8_I_WTfeIgG2
notes: Formula I contiguous polypeptide: GLP1-G8 (7-35), flexible linker, wildtype feline IgG2 Fc
- Mean Melting Point Temperature (Tm) ([1]; pH 5): 48.5 °C
- Mean Melting Point Temperature (Tm) ([1]; pH 6): 56.9 °C
- Mean Melting Point Temperature (Tm) ([1]; pH 7): 59.9 °C
- Mean Melting Point Temperature (Tm) ([1]; pH 8): 59 °C

B2: canine IgG-D Fc: wild-type canine IgG-D Fc polypeptide (protein)
chain: PVPESLGGPSVFIFPPKPKDILRITRTPEITCVVLDLGREDPEVQISWFVDGKEVHTAKTQPREQQFNSTYRVVSVLPIEHQDWLTGKEFKCRVNHIGLPSPIERTISKARGQAHQPSVYVLPPSPKELSSSDTVTLTCLIKDFFPPEIDVEWQSNGQPEPESKYHTTAPQLDEDGSYFLYSKLSVDKSRWQQGDTFTCAVMHEALQNHYTDLSLSHSPGK
modifications: Wild-type canine IgG-D Fc , Protein A -, C1q -, CD16
notes: wild-type canine IgG-D Fc polypeptide
- binding affinity to C1q (C1q [2]): weak or no measurable binding affinity to C1q
- C1q Binding (C1q [2]): −
- CD16 Binding (CD16): −
- Protein A binding affinity (Protein A): weak or no measurable Protein A binding affinity
- Protein A Binding (Protein A): −

B3: canine IgG-A Fc: wild-type canine IgG-A Fc polypeptide (protein)
chain: PVPEPLGGPSVLIFPPKPKDILRITRTPEVTCVVLDLGREDPEVQISWFVDGKEVHTAKTQSREQQFNGTYRVVSVLPIEHQDWLTGKEFKCRVNHIDLPSPIERTISKARGRAHKPSVYVLPPSPKELSSSDTVSITCLIKDFYPPDIDVEWQSNGQQEPERKHRMTPPQLDEDGSYFLYSKLSVDKSRWQQGDPFTCAVMHETLQNHYTDLSLSHSPGK
modifications: Wild-type canine IgG-A Fc , Protein A -, C1q -, CD16
notes: wild-type canine IgG-A Fc polypeptide
- binding affinity to C1q (C1q [2]): weak or no measurable binding affinity to C1q
- C1q Binding (C1q [2]): −
- CD16 Binding (CD16): −
- Protein A binding affinity (Protein A): weak or no measurable Protein A binding affinity
- Protein A Binding (Protein A): −

B4: canine IgG-C Fc: wild-type canine IgG-C Fc polypeptide (protein)
chain: PGCGLLGGPSVFIFPPKPKDILVTARTPTVTCVVVDLDPENPEVQISWFVDSKQVQTANTQPREEQSNGTYRVVSVLPIGHQDWLSGKQFKCKVNNKALPSPIEEIISKTPGQAHQPNVYVLPPSRDEMSKNTVTLTCLVKDFFPPEIDVEWQSNGQQEPESKYRMTPPQLDEDGSYFLYSKLSVDKSRWQRGDTFICAVMHEALHNHYTQISLSHSPGK
modifications: Wild-type canine IgG-C Fc , Protein A - , C1q +, CD16 +
notes: wild-type canine IgG-C Fc polypeptide
- binding affinity to C1q (C1q [2]): bind to C1q
- CD16 binding activity (CD16): have CD16 binding activity
- Protein A binding affinity (Protein A): weak or no measurable Protein A binding affinity
- Protein A Binding (Protein A): −

B5: GLP1-G8/GLP1-2G_III_WTfeIgG2: Formula III contiguous polypeptide: GLP1-G8 (7-35), GLP1 (7-35), two flexible linkers, 2G C-terminal extension, wildtype feline IgG2 Fc (protein)
chain: HGEGTFTSDVSSYLEGQAAKEFIAWLVKGGGGSGGGGSGGGGSGGGGSPKTASTIESKTGEGPKCPVPEIPGAPSVFIFPPKPKDTLSISRTPEVTCLVVDLGPDDSNVQITWFVDNTEMHTAKTRPREEQFNSTYRVVSVLPILHQDWLKGKEFKCKVNSKSLPSAMERTISKAKGQPHEPQVYVLPPTQEELSENKVSVTCLIKGFHPPDIAVEWEITGQPEPENNYQTTPPQLDSDGTYFLYSRLSVDRSHWQRGNTYTCSVSHEALHSHHTQKSLTQSPGKGGGGSGGGGHAEGTFTSDVSSYLEGQAAKEFIAWLVKGGG
modifications: Synthetic GLP1-G8/GLP-2G_III_ WTfeIgG2
notes: Formula III contiguous polypeptide: GLP1-G8 (7-35), GLP1 (7-35), two flexible linkers, 2G C-terminal extension, wildtype feline IgG2 Fc
- Mean Melting Point Temperature (Tm) ([1]; pH 6): 55.2 °C
- Mean Melting Point Temperature (Tm) ([1]; pH 7): 55.7 °C
- Mean Melting Point Temperature (Tm) ([1]; pH 8): 54.2 °C

B6: canine IgG-B Fc: wild-type canine IgG-B Fc polypeptide (protein)
chain: PAPEMLGGPSVFIFPPKPKDTLLIARTPEVTCVVVDLDPEDPEVQISWFVDGKQMQTAKTQPREEQFNGTYRVVSVLPIGHQDWLKGKQFTCKVNNKALPSPIERTISKARGQAHQPSVYVLPPSREELSKNTVSLTCLIKDFFPPDIDVEWQSNGQQEPESKYRTTPPQLDEDGSYFLYSKLSVDKSRWQRGDTFICAVMHEALHNHYTQESLSHSPGK
modifications: Wild-type canine IgG-B Fc , Protein A +, C1q +, CD16 +
notes: wild-type canine IgG-B Fc polypeptide
- binding affinity to C1q (C1q [2]): bind to C1q
- CD16 binding activity (CD16): have CD16 binding activity
- Protein A binding affinity (Protein A): has Protein A binding affinity

B7: fusion protein comprising variant canine IgG-B Fc K(93)R: fusion protein comprising variant canine IgG-B Fc K(93)R (SEQ ID NO: 78); fusion partner not stated (protein)
chain: B6 chain with K93R
modifications: left off: a dimerising Fc or GST
- binding to human C1q (C1q [3]): Reduced binding
